The target in the test is T1, His-Tagged human CD38 recombinant protein (human) (UniProt P28907).
T1 sequence (P28907 whole entry, looked up): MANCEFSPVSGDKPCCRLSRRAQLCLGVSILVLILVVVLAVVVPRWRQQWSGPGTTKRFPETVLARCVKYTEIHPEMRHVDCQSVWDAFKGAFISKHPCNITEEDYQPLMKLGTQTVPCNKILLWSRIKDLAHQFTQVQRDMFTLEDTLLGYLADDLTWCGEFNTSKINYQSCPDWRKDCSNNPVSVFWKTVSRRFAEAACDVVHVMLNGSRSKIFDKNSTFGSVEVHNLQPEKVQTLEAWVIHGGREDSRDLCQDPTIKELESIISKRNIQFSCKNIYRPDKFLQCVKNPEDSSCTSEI
In words: SPR. (SPR reads the build-up and loss of mass on a sensor chip optically.)

*1 amine or outer side, *2 acyl side, *3 side chain or, on linkers, in order; H or OH if unused. Bridges are numbered along the chain shown (N, C = ends). Primed or numbered codes have the meaning given here. The star is where a group is joined. PEG3′ = three-unit polyethylene glycol linker; NOTA = O=C(O)CN1CCN(CC(=O)O)CCN(CC(=O)*)CC1; TBMB = c1c(C[*:1])cc(C[*:3])cc1C[*:2]

B1: AJ206 (NOTA-conjugated bicyclic peptide) (peptide)
peptide: {NOTA-PEG3′}-ACVPCADFPIWYC-NH2
modifications: linker 2-5-13 via TBMB
In the case of B1, the dissociation constant (Kd) (in general, the equilibrium constant for the complex coming apart) came to 19.1 nM.

(Values after article doi:10.1101/2023.05.09.540036.)
